These results are taken from patent US10772928B2, “Modulation and detection of a neuronal alternative splicing regulatory network for treatment and diagnosis of neurological disorders” (The Governing Council of the University of Toronto, priority 2014, dated 2020).

This experiment deals with T1, nSR100 (Mus musculus, UniProt Q8BKA3).
T1 construct: host or cells: mouse N2A cells
T1 sequence (Q8BKA3 1-608): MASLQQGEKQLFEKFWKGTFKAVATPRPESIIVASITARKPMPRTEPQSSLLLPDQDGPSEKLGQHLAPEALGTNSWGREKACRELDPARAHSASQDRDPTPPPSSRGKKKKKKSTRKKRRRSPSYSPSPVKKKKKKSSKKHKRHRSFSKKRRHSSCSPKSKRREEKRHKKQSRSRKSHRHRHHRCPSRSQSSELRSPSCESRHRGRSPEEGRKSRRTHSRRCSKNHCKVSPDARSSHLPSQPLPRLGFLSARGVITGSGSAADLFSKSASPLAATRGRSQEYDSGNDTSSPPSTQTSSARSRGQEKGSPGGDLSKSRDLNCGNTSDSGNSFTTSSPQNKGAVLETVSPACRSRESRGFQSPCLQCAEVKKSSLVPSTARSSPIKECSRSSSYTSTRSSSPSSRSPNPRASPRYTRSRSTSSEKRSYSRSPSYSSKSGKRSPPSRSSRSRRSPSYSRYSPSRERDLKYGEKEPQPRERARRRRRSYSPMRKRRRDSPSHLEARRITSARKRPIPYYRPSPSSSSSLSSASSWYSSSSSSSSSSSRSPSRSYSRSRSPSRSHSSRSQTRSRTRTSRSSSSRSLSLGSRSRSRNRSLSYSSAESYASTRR
The experiment can be described thus: AP-MS nSR100 interaction partners from mouse N2A cells (Table 5). In kind it is binding. As to conditions: for AvgP (average of the SAINT scores) / MaxP (maximal SAINT score): bait Srrm4; for FoldChange between the prey Avg spectra of the bait and control purifications: bait Srrm4, 0.1 added to prevent division by 0; for AvgSpec (average number of spectra per replicate): bait Srrm4, 2 replicates; for Spectra (number of spectra for the prey in the purification of the bait): AP-MS; for SpecSum: bait Srrm4, sum of spectra over 2 replicates.

Setting [1] is: bait Srrm4, biological replicate 1 (first number of the cell).
Where [2] appears, read: bait Srrm4, biological replicate 2 (second number of the cell).

Text: By applying affinity purification coupled to mass-spectrometry (AP-MS), several interaction nSR100 partner proteins were detected that provide insight into mechanisms of post-translational regulation of nSR100 levels.

B1: Cdk11b (protein, UniProt P24788 1-784, looked up)
Cyclin-dependent kinase 11B: MGDEKDSWKVKTLDEILQEKKRRKEQEEKAEIKRLKNSDDRDSKRDSLEEGELRDHRMEITIRNSPYRREDSMEDRGEEDDSLAIKPPQQMSRKEKAHHRKDEKRKEKRRHRSHSAEGGKHARVKEKEREHERRKRHREEQDKARREWERQKRREMAREHSRRERDRLEQLERKRERERKLREQQKEQREQKERERRAEERRKEREARREVSAHHRTMREEYSDKGKVGHWSRSPLRPPRERFEMGDNRKPVKEEKVEERDLLSDLQDISDSERKTSSAESSSAESGSGSEEEEEEEEEEEEEEGSTSEESEEEEEEEEEEEEEETGSNSEEASEQSAEEVSDEEMSEDEDRENENHILVVPESRFDRDSGDSEEGEEEVGEGTPQSSAPTEGDYVPDSPALSPIELKQELPKYLPALQGCRSVEEFQCLNRIEEGTYGVVYRAKDKKTDEIVALKRLKMEKEKEGFPITSLREINTILKAQHPNIVTVREIVVGSNMDKIYIVMNYVEHDLKSLMETMKQPFLPGEVKTLMIQLLSGVKHLHDNWILHRDLKTSNLLLSHAGILKVGDFGLAREYGSPLKAYTPVVVTLWYRAPELLLGAKEYSTAVDMWSVGCIFGELLTQKPLFPGKSDIDQINKIFKDLGTPSEKIWPGYNDLPAVKKMTFSEYPYNNLRKRFGALLSDQGFDLMNKFLTYYPGRRINAEDGLKHEYFRETPLPIDPSMFPTWPAKSEQQRVKRGTSPRPPEGGLGYSQLGDDDLKETGFHLTTTNQGASAAGPGFSLKF
Consider B1, for which the “AvgP (average of the SAINT scores)” value is recorded as 0.9; the “MaxP (maximal SAINT score)” value is recorded as 0.98; the “FoldChange between the prey Avg spectra of the bait and control purifications” value is given as 3.43; the “AvgSpec (average number of spectra per replicate)” value is listed as 12. The SpecSum is 24. Moreover, under setting [1], the “Spectra (number of spectra for the prey in the purification of the bait)” value amounted to 13. For the same molecule, the “Spectra (number of spectra for the prey in the purification of the bait)” value under setting [2] turned out to be 11.

B2: Cyfip1 (protein, UniProt Q7TMB8 1-1253, looked up)
Cytoplasmic FMR1-interacting …: MAAQVTLEDALSNVDLLEELPLPDQQPCIEPPPSSLLYQPNFNTNFEDRNAFVTGIARYIEQATVHSSMNEMLEEGQEYAVMLYTWRSCSRAIPQVKCNEQPNRVEIYEKTVEVLEPEVTKLMNFMYFQRNAIERFCGEVRRLCHAERRKDFVSEAYLITLGKFINMFAVLDELKNMKCSVKNDHSAYKRAAQFLRKMADPQSIQESQNLSMFLANHNKITQSLQQQLEVISGYEELLADIVNLCVDYYENRMYLTPSEKHMLLKVMGFGLYLMDGSVSNIYKLDAKKRINLSKIDKYFKQLQVVPLFGDMQIELARYIKTSAHYEENKSRWTCASSSSSPQYNICEQMIQIREDHMRFISELARYSNSEVVTGSGRQEAQKTDAEYRKLFDLALQGLQLLSQWSAHVMEVYSWKLVHPTDKYSNKDCPDNAEEYERATRYNYTTEEKFALVEVIAMIKGLQVLMGRMESVFNHAIRHTVYAALQDFSQVTLREPLRQAIKKKKNVIQSVLQAIRKTVCDWETGHEPFNDPALRGEKDPKSGFDIKVPRRAVGPSSTQLYMVRTMLESLIADKSGSKKTLRSSLEGPTILDIEKFHRESFFYTHLINFSETLQQCCDLSQLWFREFFLELTMGRRIQFPIEMSMPWILTDHILETKEASMMEYVLYSLDLYNDSAHYALTKFNKQFLYDEIEAEVNLCFDQFVYKLADQIFAYYKVMAGSLLLDKRLRSECKNQGATIHLPPSNRYETLLKQRHVQLLGRSIDLNRLITQRVSAAMYKSLELAIGRFESEDLTSVVELDGLLEINRMTHKLLSRYLTLDSFDAMFREANHNVSAPYGRITLHVFWELNYDFLPNYCYNGSTNRFVRTVLPFSQEFQRDKQPNAQPQYLHGSKALNLAYSSIYGSYRNFVGPPHFQVICRLLGYQGIAVVMEELLKVVKSLLQGTILQYVKTLMEVMPKICRLPRHEYGSPGILEFFHHQLKDIVEYAELKTVCFQNLREVGNAVLFCLLIEQSLSLEEVCDLLHAAPFQNILPRIHVKEGERVDAKMKRLESKYAPLHLVPLIERLGTPQQIAIAREGDLLTKERLCCGLSMFEVILTRIRTFLDDPIWRGPLPSNGVMHVDECVEFHRLWSAMQFVYCIPVGTHEFTVEQCFGDGLHWAGCMIIVLLGQQRRFAVLDFCYHLLKVQKHDGKDEIIKNVPLKKMVERIRKFQILNDEIITILDKYLKSGDGESTPVEHVRCFQPPIHQSLASS
With B2, the “AvgP (average of the SAINT scores)” value amounted to 0.89; the “MaxP (maximal SAINT score)” value is on record as 1; the “FoldChange between the prey Avg spectra of the bait and control purifications” value came to 5.5; the “AvgSpec (average number of spectra per replicate)” value stood at 11. The molecule also showed a SpecSum of 22. Also, the “Spectra (number of spectra for the prey in the purification of the bait)” value under setting [1] came to 7. Further, the “Spectra (number of spectra for the prey in the purification of the bait)” value under setting [2] turned out to be 15.
